Six molecules from patent publication US20190322728A1 (PROTHENA BIOSCIENCES, published 2019) can be followed below.

Assay [1] concerns the target recombinant purified hTau-P301L (human) (UniProt P10636). Put plainly: SPR (Biacore T200), antibody held by a capture antibody on a CM5 chip, hTau-P301L as analyte. (In general: Surface plasmon resonance follows binding to a sensor surface in real time, without labels.)
Assay [2] has as its target T1, tau deletion mutant Δ25-44 (printed A25-44) (human, UniProt P10636 1-758).
T1 construct: Deletion mutant of rTau, tested in clarified bacterial lysate; The limits of the pieces are derived from the printed deletion
Kind of assay: Western blot of bacterial lysate. In general terms: A western blot detects proteins with antibodies after separation by electrophoresis.

The target of assay [3] is T2, tau deletion mutant Δ30-39 (printed A30-39) (human, UniProt P10636 1-758).
T2 construct: Deletion mutant of rTau, tested in clarified bacterial lysate; The limits of the pieces are derived from the printed deletion
T2 sequence (P10636 other isoform, or with tags, fused parts or gaps mutant): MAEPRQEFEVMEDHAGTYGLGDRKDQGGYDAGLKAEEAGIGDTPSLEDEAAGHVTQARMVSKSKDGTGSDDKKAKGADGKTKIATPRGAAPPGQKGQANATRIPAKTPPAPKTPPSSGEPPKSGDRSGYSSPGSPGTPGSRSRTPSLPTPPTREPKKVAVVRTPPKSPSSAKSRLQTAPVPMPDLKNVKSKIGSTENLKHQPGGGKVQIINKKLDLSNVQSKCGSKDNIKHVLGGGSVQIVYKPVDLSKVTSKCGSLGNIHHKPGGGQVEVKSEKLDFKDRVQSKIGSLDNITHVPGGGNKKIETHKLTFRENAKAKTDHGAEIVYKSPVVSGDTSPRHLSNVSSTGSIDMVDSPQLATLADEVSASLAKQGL
Kind of assay: Western blot of bacterial lysate.

Assay [4] has as its target T3, rTau: human tau with 4 microtubule binding repeats and no N-terminal inserts, containing a P301L mutation (human, UniProt P10636 2-758).
T3 construct: Expressed in E. coli and purified; It is the parent of the deletion mutants; also called full-length Tau; wild-type Tau (WT) of the blots
Kind of assay: Western blot of bacterial lysate, 16B5 at 0.2 ug/mL.

Assay [5] concerns the target T4, tau deletion mutant Δ5-24 (printed A5-24) (human, UniProt P10636-6 1-383).
T4 construct: Deletion mutant of rTau, tested in clarified bacterial lysate; The limits of the pieces are derived from the printed deletion
The description is as above.

Assay [6] addresses T5, tau peptide, residues 25-44 of SEQ ID NO: 1 (human).
T5 construct: Proteolytic fragment (LysC and trypsin digests) of rTau, precipitated by 16B5 and identified by MALDI-TOF/TOF
T5 peptide: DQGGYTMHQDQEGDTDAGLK
Put plainly: precipitation of protease fragments of rTau with 16B5, HPLC, MALDI-TOF/TOF.

Assay [7] addresses T6, tau peptide, residues 24-44 of SEQ ID NO: 1 (human).
T6 construct: Tryptic fragment of rTau, precipitated by 16B5 and identified by MALDI-TOF/TOF
T6 peptide: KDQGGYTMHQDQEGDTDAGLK
Described as above.

Assay [8] concerns the target T7, tau deletion mutant Δ23-32 (printed A23-32) (human, UniProt P10636 1-758).
T7 construct: Deletion mutant of rTau, tested in clarified bacterial lysate; The limits of the pieces are derived from the printed deletion
Put plainly: Western blot of bacterial lysate, antibody at 0.2 µg/mL.

Chain of recombinant purified hTau-P301L (human) (P10636 other isoform, or with tags, fused parts or gaps P301L P301L): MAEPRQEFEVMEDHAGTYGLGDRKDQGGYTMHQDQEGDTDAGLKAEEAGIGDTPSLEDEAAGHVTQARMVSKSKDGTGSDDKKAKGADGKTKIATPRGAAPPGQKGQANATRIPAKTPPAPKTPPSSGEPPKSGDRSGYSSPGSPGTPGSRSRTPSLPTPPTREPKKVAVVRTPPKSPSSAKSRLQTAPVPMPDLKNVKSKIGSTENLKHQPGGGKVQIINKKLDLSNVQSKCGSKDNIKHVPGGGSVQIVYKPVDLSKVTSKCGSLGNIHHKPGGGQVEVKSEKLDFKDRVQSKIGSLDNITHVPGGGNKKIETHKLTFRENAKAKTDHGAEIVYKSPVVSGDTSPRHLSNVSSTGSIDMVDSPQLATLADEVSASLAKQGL
T1 sequence (P10636 other isoform, or with tags, fused parts or gaps mutant): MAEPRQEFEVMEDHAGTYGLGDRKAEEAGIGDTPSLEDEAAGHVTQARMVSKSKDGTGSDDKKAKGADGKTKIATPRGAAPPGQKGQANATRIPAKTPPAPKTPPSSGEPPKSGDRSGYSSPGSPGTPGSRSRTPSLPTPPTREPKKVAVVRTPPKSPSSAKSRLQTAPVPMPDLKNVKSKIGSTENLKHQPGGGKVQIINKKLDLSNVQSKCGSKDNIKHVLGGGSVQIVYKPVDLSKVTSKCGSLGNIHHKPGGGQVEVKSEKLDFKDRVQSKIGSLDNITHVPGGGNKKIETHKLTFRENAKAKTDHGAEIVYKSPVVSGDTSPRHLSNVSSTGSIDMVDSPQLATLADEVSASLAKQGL
T4 sequence (P10636 other isoform, or with tags, fused parts or gaps mutant): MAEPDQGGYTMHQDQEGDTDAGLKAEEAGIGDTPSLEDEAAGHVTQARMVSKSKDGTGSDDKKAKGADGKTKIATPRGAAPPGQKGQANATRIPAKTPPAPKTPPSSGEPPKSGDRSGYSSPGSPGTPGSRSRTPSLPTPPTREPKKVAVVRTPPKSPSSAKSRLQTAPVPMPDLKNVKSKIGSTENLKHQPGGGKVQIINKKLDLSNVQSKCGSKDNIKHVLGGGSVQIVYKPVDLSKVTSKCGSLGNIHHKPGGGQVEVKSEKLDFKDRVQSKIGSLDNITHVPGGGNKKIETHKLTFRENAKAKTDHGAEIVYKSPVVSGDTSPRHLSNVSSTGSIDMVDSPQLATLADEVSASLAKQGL
T3 sequence (P10636 other isoform, or with tags, fused parts or gaps P301L P301L limits assumed): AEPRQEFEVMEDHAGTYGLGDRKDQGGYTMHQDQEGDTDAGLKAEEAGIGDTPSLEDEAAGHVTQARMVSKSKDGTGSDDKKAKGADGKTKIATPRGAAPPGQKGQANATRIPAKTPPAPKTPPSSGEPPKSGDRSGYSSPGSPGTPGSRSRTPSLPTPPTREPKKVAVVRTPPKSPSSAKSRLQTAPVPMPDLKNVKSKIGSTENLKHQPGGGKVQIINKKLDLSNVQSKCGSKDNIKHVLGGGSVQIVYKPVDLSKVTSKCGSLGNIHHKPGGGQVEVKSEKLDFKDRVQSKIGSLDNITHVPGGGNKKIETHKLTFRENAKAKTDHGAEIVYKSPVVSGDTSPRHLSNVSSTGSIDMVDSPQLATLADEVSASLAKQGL
T7 sequence (P10636 other isoform, or with tags, fused parts or gaps mutant): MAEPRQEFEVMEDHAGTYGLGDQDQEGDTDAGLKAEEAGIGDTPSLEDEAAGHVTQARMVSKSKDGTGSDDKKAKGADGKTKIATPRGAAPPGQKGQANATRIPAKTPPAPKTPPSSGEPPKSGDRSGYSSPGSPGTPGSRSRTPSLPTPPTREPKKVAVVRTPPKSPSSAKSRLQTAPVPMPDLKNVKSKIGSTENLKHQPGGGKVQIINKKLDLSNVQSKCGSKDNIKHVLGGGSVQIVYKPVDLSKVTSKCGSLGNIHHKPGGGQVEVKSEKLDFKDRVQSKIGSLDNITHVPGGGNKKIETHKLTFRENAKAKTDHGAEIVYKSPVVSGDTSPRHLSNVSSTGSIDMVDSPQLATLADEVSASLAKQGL

B1: 16B5 monoclonal antibody (mouse) (antibody, V domains shown)
VH: QIQLVQSGPELKKPGETVKISCKASGYPFTYHGMDWVKQAPWGGLEWMGWINTYSGVPTYADDFKGRFAFSLETSVGTAYLQINNLKNEDTATYFCARRRDFTMDFWGQGTSVTVSS
VL: NIVLSQSPSSLAVSPGEKVTMSCKSSQSLLNSRTRKNYLAWFQQKPGQSPKLLIYWASTRESGVPDRFTGSGSGTDFTLTISSVQAEDLAVYYCKQSYTLRTFGGGTNLEIKR
notes: Mouse monoclonal antibody; The control 6F10 is called an IgG1 isotype control; also called Murine 16B5; pan antibody 16B5
As usually defined, the Kd is the equilibrium constant for the complex coming apart. Take B1: in assay [1], the Kd was 2.32 pM. The binding result is reported as “no binding (tested: 0.2 µg/mL antibody)” in assay [2]; “no binding (tested: 0.2 µg/mL antibody)” in assay [3]; “binds” in assay [4]; “binds” in assay [5]; “binds” in assay [6]; “binds” in assay [7]. For the same molecule, the binding result in assay [8] is recorded as “binds”.

B2: humanized 16B5, version H1L2 (antibody, V domains shown)
VH: QVQLVQSGSELKKPGASVKVSCKASGYPFTYHGMDWVRQAPGQGLEWMGWINTYSGVPTYADDFKGRFVFSLDTSVSTAYLQISSLKAEDTAVYFCARRRDFTMDFWGQGTTVTVSS
VL: NIVLTQSPDSLAVSLGERATINCKSSQSLLNSRTRKNYLAWFQQKPGQSPKLLIYWASTRESGVPDRFSGSGSGTDFTLTISSLQAEDVAVYYCKQSYTLRTFGGGTKVEIKR
A word on the koff: it is the first-order rate constant of dissociation. By kon is commonly meant the rate constant with which the complex forms. For the molecule B2, in assay [1], the Kd worked out at 2.94 pM, the koff came out at 0.000131 s⁻¹ and the kon was 4.47e+07 M⁻¹ s⁻¹.

B3: humanized 16B5, version H1L4 (antibody, V domains shown)
VH: QVQLVQSGSELKKPGASVKVSCKASGYPFTYHGMDWVRQAPGQGLEWMGWINTYSGVPTYADDFKGRFVFSLDTSVSTAYLQISSLKAEDTAVYFCARRRDFTMDFWGQGTTVTVSS
VL: NIVLTQSPSSLAVSLGERATINCKSSQSLLNSRTRKNYLAWFQQKPGQSPKLLIYWASTRESGVPDRFSGSGSGTDFTLTISSLQAEDVAVYYCKQSYTLRTFGGGTKVEIKR
Regarding B3, in assay [1], the Kd was 3.15 pM, the koff was 0.000137 s⁻¹ and the kon was 4.36e+07 M⁻¹ s⁻¹.

B4: humanized 16B5, version H1L1 (antibody, V domains shown)
VH: QVQLVQSGSELKKPGASVKVSCKASGYPFTYHGMDWVRQAPGQGLEWMGWINTYSGVPTYADDFKGRFVFSLDTSVSTAYLQISSLKAEDTAVYFCARRRDFTMDFWGQGTTVTVSS
VL: NIVLTQSPDSLAVSLGERATINCKSSQSLLNSRTRKNYLAWFQQKPGQPPKLLIYWASTRESGVPDRFSGSGSGTDFTLTISSLQAEDVAVYYCKQSYTLRTFGGGTKVEIKR
In the case of B4, the dissociation constant relative to the chimeric antibody (fold of chimeric 16B5) in assay [1] turned out to be 0.33.

B5: humanized 16B5, version H2L4 (antibody, V domains shown)
VH: EVQLVQSGSELKKPGASVKVSCKASGYPFTYHGMDWVRQAPGQGLEWMGWINTYSGVPTYADDFKGRFVFSLDTSVSTAYLQISSLKAEDTAVYFCARRRDFTMDFWGQGTTVTVSS
VL: NIVLTQSPSSLAVSLGERATINCKSSQSLLNSRTRKNYLAWFQQKPGQSPKLLIYWASTRESGVPDRFSGSGSGTDFTLTISSLQAEDVAVYYCKQSYTLRTFGGGTKVEIKR
In the case of B5, in assay [1], the Kd was determined as 3.95 pM, the koff is 0.000171 s⁻¹ and the kon was determined as 4.34e+07 M⁻¹ s⁻¹.

B6: humanized 16B5, version H2L2 (antibody, V domains shown)
VH: EVQLVQSGSELKKPGASVKVSCKASGYPFTYHGMDWVRQAPGQGLEWMGWINTYSGVPTYADDFKGRFVFSLDTSVSTAYLQISSLKAEDTAVYFCARRRDFTMDFWGQGTTVTVSS
VL: NIVLTQSPDSLAVSLGERATINCKSSQSLLNSRTRKNYLAWFQQKPGQSPKLLIYWASTRESGVPDRFSGSGSGTDFTLTISSLQAEDVAVYYCKQSYTLRTFGGGTKVEIKR
As to B6, in assay [1], the Kd turned out to be 2.86 pM, the koff turned out to be 0.000138 s⁻¹ and the association rate constant (kon) worked out at 4.85e+07 M⁻¹ s⁻¹.
